Biological target: the molecule itself
Test: crystal structure

B1: Xrcc4-MyH7-1590-1657 (domain or fragment, human)
chain: GGSGERKISRIHLVSEPSITHFLQVSWEKTLESGFVITLTDGHSAWTGTVSESEISQEADDMAMEKGKYVGELRKALLSGAGPADVYTFNFSKESCYFFFEKNLKDVSFRLGSFNLEKVENPAEVIRELICYCLDTTAENQAKNEHHLRVVDSLQTSLDAETRSRNEALRVKKKMEGDLNEMEIQLSHANRMAAEAQKQVKSLQSLLKDTQIQL
modifications: reductively methylated
**Q.** Does B1 bind?
**A.** Result: binds

Source: PMC4715562 (Proteins, 2015)
